In US20190055547A1:

Key:
Pak1 [1] = target: Pak1 (UniProt Q13153); assay: competitive phage ELISA IC50 compared with KD (~IC50) of primary-screen monobodies
Pak1 [2] = target: Pak1 (UniProt Q13153); assay: competitive phage ELISA: biotinylated Pak1 immobilised, varying non-biotinylated Pak1 mixed with phage displaying D3

fold improvement over the binding of the monobodies from the primary screen (Pak1 [1]): 1000 fold
IC50 (Pak1 [2]): 1.5 nM
B1: Clone D3 (designed binder, not shown: large carriers; small tags and cut ends)
chain: EQKLISEEDLMAVSDVPRKLEVVAATPTSLLISWDAPWKKTRYYRITYGETGGNSPVQEFTVPGSKSTATISGLKPGVDYTITVYAVTASWPWSKPISINYRTSGGGGSGGGGSGGGGSGGGGSGGGGSDYKDDDDKLASAMAVSDVPRKLEVVAATPTSLLISWDAPSRHIYYYRITYGETGGNSPVQEFTVPGSKSTATISGLKPGVDYTITVYAVTDLYSNSKPISINYRTS
